# Laboratory results as given in US20240294569A1, “MODULATORS OF SORTILIN ACTIVITY” (Insusense ApS, priority 2021, published 2024).
# Peptide text beside a SMILES is read from it.
# Target: T1, hSortilin (Homo sapiens, UniProt Q99523)
# T1 sequence (Q99523 78-831): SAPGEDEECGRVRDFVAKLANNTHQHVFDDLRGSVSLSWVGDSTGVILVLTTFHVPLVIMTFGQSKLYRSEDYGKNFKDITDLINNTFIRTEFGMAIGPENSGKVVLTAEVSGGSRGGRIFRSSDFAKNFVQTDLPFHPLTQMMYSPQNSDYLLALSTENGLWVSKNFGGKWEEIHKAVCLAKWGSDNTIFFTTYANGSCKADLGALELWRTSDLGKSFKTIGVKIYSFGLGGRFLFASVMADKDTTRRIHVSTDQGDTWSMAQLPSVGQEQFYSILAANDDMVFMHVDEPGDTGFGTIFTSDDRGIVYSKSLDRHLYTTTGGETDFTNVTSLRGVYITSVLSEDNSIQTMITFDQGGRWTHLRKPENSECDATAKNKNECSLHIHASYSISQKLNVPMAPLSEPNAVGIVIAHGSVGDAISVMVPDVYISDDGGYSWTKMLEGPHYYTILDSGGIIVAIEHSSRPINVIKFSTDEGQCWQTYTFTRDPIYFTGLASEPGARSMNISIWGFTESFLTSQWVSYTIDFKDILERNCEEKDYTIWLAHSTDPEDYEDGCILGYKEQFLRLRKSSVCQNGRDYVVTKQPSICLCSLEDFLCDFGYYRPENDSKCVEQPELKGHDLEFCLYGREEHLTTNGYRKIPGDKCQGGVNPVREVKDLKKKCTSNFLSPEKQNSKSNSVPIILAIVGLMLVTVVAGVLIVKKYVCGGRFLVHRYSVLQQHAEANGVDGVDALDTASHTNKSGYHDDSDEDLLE
# Test: Neurotensin scintillation proximity assay (displacement of [3H]-neurotensin binding)
# Conditions: displacement of 5 nM [3H]-neurotensin from 150 nM 6his-Sortilin; average of at least 2 determinations; read-out: IC50 [3H]Neurotensin SPA
# Method: The data of exemplified compounds of the invention tested in a Neurotensin (NTS) scintillation proximity assay (SPA). NTS, which is a 13 amino acid neuropeptide, is a sortilin ligand. The IC50 is a measure of the amount of the compound required to inhibit the binding of NTS to sortilin by 50%.
# Compound affinity was determined by measuring the displacement of [^3H]-neurotensin binding to hSortilin in SPA format. Total volume of 40 μl in 50 mM HEPES pH 7.4 assay buffer containing 100 mM NaCl, 2.0 mM CaCl2, 0.1% BSA and 0.1% Tween-20. Compound pre-incubation for 30 minutes at room temperature with 150 nM of 6his-Sortilin before 5 nM [3H]-Neurotensin and Ni chelate imaging beads (Perkin Elmer) were added, after 6 hours the plate was read on a ViewLux with 360 s exposure time. Dose-response evaluation of compounds was performed with 8 concentrations of drugs (covering 3 decades). IC50 values were calculated by nonlinear regression using the sigmoid concentration-response (variable slope) using CDD Vault software. All values reported are average of at least 2 determinations.
row,Compound,IC50
1,"CC[C@H](C)[C@H](NC(=O)[C@H](Cc1ccc(O)cc1)NC(=O)[C@@H]1CNCCN1)C(=O)N[C@@H](CCC(C)(C)C)C(=O)O [Example 19, (S)-2-((2S,3S)-2-((S)-3-(4-Hydroxyphenyl)-2-((S)-piperazine-2-carboxamido)propan amido)-3-methylpentanamido)-5,5-dimethylhexanoic acid] (HELM PEPTIDE1{[O=C([C@@H]1CNCCN1)[*:2]].Y.I.[CC(C)(C)CC[C@H](N[*:1])C(=O)O]}$$$$V2.0)",0.1 µM
2,"CC[C@H](C)[C@H](NC(=O)[C@H](Cc1ccc(O)cc1)NC(=O)[C@H]1CCNC1)C(=O)N[C@@H](CCC(C)(C)C)C(=O)O [Example 20, (S)-2-((2S,3S)-2-((S)-3-(4-Hydroxyphenyl)-2-((S)-pyrrolidine-3-carboxamido)propan amido)-3-methylpentanamido)-5,5-dimethylhexanoic acid]",0.15 µM
3,"CC[C@H](C)[C@H](NC(=O)[C@H](Cc1ccc(O)cc1)NC(=O)[C@@H]1CCNC1)C(=O)N[C@@H](CCC(C)(C)C)C(=O)O [Example 21, (S)-2-((2S,3S)-2-((S)-3-(4-Hydroxyphenyl)-2-((R)-pyrrolidine-3-carboxamido)propan amido)-3-methylpentanamido)-5,5-dimethylhexanoic acid]",0.18 µM
4,"CC[C@H](C)[C@H](NC(=O)[C@H](Cc1ccc(O)cc1)NC(=O)[C@@H]1CNCCO1)C(=O)N[C@@H](CCC(C)(C)C)C(=O)O [Example 22, (S)-2-((2S,3S)-2-((S)-3-(4-Hydroxyphenyl)-2-((S)-morpholine-2-carboxamido)propan amido)-3-methylpentanamido)-5,5-dimethylhexanoic acid]",0.07 µM
5,"CC[C@H](C)[C@H](NC(=O)[C@H](Cc1ccc(O)cc1)NC(=O)[C@H]1COCCN1)C(=O)N[C@@H](CCC(C)(C)C)C(=O)O [Example 23, (S)-2-((2S,3S)-2-((S)-3-(4-Hydroxyphenyl)-2-((R)-morpholine-3-carboxamido)propan amido)-3-methylpentanamido)-5,5-dimethylhexanoic acid]",0.1 µM
6,"CC[C@H](C)[C@H](NC(=O)[C@H](Cc1ccc(O)cc1)NC(=O)[C@H]1CN(C(C)=O)CCO1)C(=O)N[C@@H](CCC(C)(C)C)C(=O)O [Example 25, (S)-2-((2S,3S)-2-((S)-2-((R)-4-Acetylmorpholine-2-carboxamido)-3-(4-hydroxyphenyl)propanamido)-3-methylpentanamido)-5,5-dimethylhexanoic acid]",0.14 µM
7,"CC[C@H](C)[C@H](NC(=O)[C@H](Cc1ccc(O)cc1)NC(C)=O)C(=O)N[C@@H](CCC(C)(C)C)C(=O)O [Example 28, (S)-2-((2S,3S)-2-((S)-2-Acetamido-3-(4-hydroxyphenyl)propanamido)-3-methylpentanamido)-5,5-dimethylhexanoic acid]",0.19 µM
8,"CC[C@H](C)[C@H](NC(=O)[C@H](Cc1ccc(O)cc1)NC(=O)[C@H]1CNCCO1)C(=O)N[C@@H](CCC(C)(C)C)C(=O)O [Example 30, (S)-2-((2S,3S)-2-((S)-3-(4-Hydroxyphenyl)-2-((R)-morpholine-2-carboxamido)propan amido)-3-methylpentanamido)-5,5-dimethylhexanoic acid]",0.09 µM
9,"Cn1cncc1C[C@H](NC(=O)[C@H](Cc1ccc(O)cc1)NC(=O)[C@@H]1CCCN1)C(=O)N[C@@H](CCC(C)(C)C)C(=O)O [Example 32, (S)-2-((S)-2-((S)-3-(4-Hydroxyphenyl)-2-((S)-pyrrolidine-2-carboxamido)propan amido)-3-(1-methyl-1H-imidazol-5-yl)propanamido)-5,5-dimethylhexanoic acid.di-formic acid] (HELM PEPTIDE1{P.Y.[Cn1cncc1C[C@H](N[*:1])C(=O)[*:2]].[CC(C)(C)CC[C@H](N[*:1])C(=O)O]}$$$$V2.0)",0.1 µM

# Target: 6his-Sortilin (human) (UniProt Q99523)
# Test: SPA, displacement of [3H]-neurotensin from 6his-Sortilin
# Conditions: not given
row,Compound,IC50
1,"(2S)-5,5-Dimethyl-2-((3S)-3-methyl-2-((S)-2-((S)-pyrrolidine-2-carboxamido)propanamido)pentanamido)hexanoic acid (peptide)",0.07 µM
2,"(S)-2-((2S,3S)-2-((S)-3-(4-Hydroxyphenyl)-2-((R)-morpholine-2-carboxamido)propanamido)-3-methylpentanamido)-5,5-dimethylhexanoic acid (peptide)",0.09 µM
3,"(S)-2-((2S,3S)-2-((S)-3-(4-Hydroxyphenyl)-2-((R)-morpholine-3-carboxamido)propanamido)-3-methylpentanamido)-5,5-dimethylhexanoic acid (peptide)",0.1 µM
4,"(S)-2-((2S,3S)-2-((S)-3-(4-Hydroxyphenyl)-2-((R)-piperazine-2-carboxamido)propanamido)-3-methylpentanamido)-5,5-dimethylhexanoic acid (peptide)",0.11 µM
5,"(S)-2-((2S,3S)-2-((S)-3-(4-Hydroxyphenyl)-2-((R)-pyrrolidine-3-carboxamido)propanamido)-3-methylpentanamido)-5,5-dimethylhexanoic acid (peptide)",0.18 µM
6,"(S)-2-((2S,3S)-2-((S)-3-(4-Hydroxyphenyl)-2-((S)-morpholine-2-carboxamido)propanamido)-3-methylpentanamido)-5,5-dimethylhexanoic acid (peptide)",0.07 µM
7,"(S)-2-((2S,3S)-2-((S)-3-(4-Hydroxyphenyl)-2-((S)-piperazine-2-carboxamido)propanamido)-3-methylpentanamido)-5,5-dimethylhexanoic acid (peptide)",0.1 µM
8,"(S)-2-((2S,3S)-2-((S)-3-(4-Hydroxyphenyl)-2-((S)-pyrrolidine-2-carboxamido)propanamido)-3-methylpentanamido)-5,5-dimethylhexanoic acid (peptide)",0.09 µM
9,"(S)-2-((2S,3S)-2-((S)-3-(4-Hydroxyphenyl)-2-((S)-pyrrolidine-3-carboxamido)propanamido)-3-methylpentanamido)-5,5-dimethylhexanoic acid (peptide)",0.15 µM
10,"(S)-2-((S)-2-((S)-3-(4-Hydroxyphenyl)-2-((S)-pyrrolidine-2-carboxamido)propanamido)-3-(1-methyl-1H-imidazol-4-yl)propanamido)-5,5-dimethylhexanoic acid (peptide)",0.37 µM
11,"(S)-2-((S)-2-((S)-3-(4-Hydroxyphenyl)-2-((S)-pyrrolidine-2-carboxamido)propanamido)-3-(1-methyl-1H-imidazol-5-yl)propanamido)-5,5-dimethylhexanoic acid.di-formic acid (peptide)",0.1 µM
12,"(S)-2-((S)-2-((S)-3-(4-Hydroxyphenyl)-2-((S)-pyrrolidine-2-carboxamido)propanamido)-3-(1H-indol-3-yl)propanamido)-5,5-dimethylhexanoic acid (peptide)",0.06 µM
13,"(S)-2-((S)-2-((S)-3-(4-Hydroxyphenyl)-2-((S)-pyrrolidine-2-carboxamido)propanamido)-3-(pyridin-3-yl)propanamido)-5,5-dimethylhexanoic acid (peptide)",0.09 µM
14,"(S)-2-((S)-2-((S)-3-(4-Hydroxyphenyl)-2-((S)-pyrrolidine-2-carboxamido)propanamido)-3-(pyridin-4-yl)propanamido)-5,5-dimethylhexanoic acid (peptide)",0.2 µM
15,"(S)-2-((S)-2-((S)-3-(4-Hydroxyphenyl)-2-((S)-pyrrolidine-2-carboxamido)propanamido)-3-(thiazol-4-yl)propanamido)-5,5-dimethylhexanoic acid (peptide)",0.07 µM
16,"(S)-2-((S)-2-((S)-3-(4-Hydroxyphenyl)-2-((S)-pyrrolidine-2-carboxamido)propanamido)-3-(thiophen-3-yl)propanamido)-5,5-dimethylhexanoic acid (peptide)",0.14 µM
17,"(S)-2-((S)-2-((S)-3-(4-Hydroxyphenyl)-2-((S)-pyrrolidine-2-carboxamido)propanamido)-3-morpholinopropanamido)-5,5-dimethylhexanoic acid (peptide)",0.16 µM
18,"(S)-2-((S)-2-((S)-4-Amino-4-oxo-2-((S)-pyrrolidine-2-carboxamido)butanamido)-3-(thiazol-4-yl)propanamido)-5,5-dimethylhexanoic acid (peptide)",0.09 µM
